B1: FUT8 (parent)
chain: YPSYKVREKIETVKYPTYPEAEK
B2: ZNF232 (parent)
chain: HSGEKPFICKECGKAYGWCSELIR

Variants of: B1
Assay: protein stability index of a GFP-peptide fusion (GPS, HEK-293T) (PSI 1-6); higher = more stable
Conditions: c terminus: native
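Also: lentivirally expressed fusions sorted by FACS into six bins by GFP to DsRed ratio, PSI derived from sequencing read proportions per bin multiplied by bin number.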

| Variant | protein stability index |
| --- | --- |
| YPSYKVREKIETVKYPTQPEAEK | 4.54 |
| YPSYKVREKIETVKYPTRPEAEK | 5.1 |
| YPSYKVREKIETVKYPTSPEAEK | 4.68 |
| YPSYKVREKIETVKYPTTPEAEK | 4.7 |
| YPSYKVREKIETVKYPTVPEAEK | 4.24 |
| YPSYKVREKIETVKYPTWPEAEK | 3.63 |
| YPSYKVREKIETVKYPTYAEAEK | 3.79 |
| YPSYKVREKIETVKYPTYCEAEK | 3 |
| YPSYKVREKIETVKYPTYDEAEK | 3.66 |
| YPSYKVREKIETVKYPTYEEAEK | 4.67 |
| YPSYKVREKIETVKYPTYFEAEK | 2.01 |
| YPSYKVREKIETVKYPTYGEAEK | 3.94 |
| YPSYKVREKIETVKYPTYHEAEK | 3.18 |
| YPSYKVREKIETVKYPTYIEAEK | 3.59 |
| YPSYKVREKIETVKYPTYKEAEK | 4.19 |
| YPSYKVREKIETVKYPTYMEAEK | 3.04 |
| YPSYKVREKIETVKYPTYNEAEK | 4.11 |
| YPSYKVREKIETVKYPTYQEAEK | 3.85 |
| YPSYKVREKIETVKYPTYREAEK | 3.71 |
| YPSYKVREKIETVKYPTYSEAEK | 3.94 |
| YPSYKVREKIETVKYPTYTEAEK | 3.45 |
| YPSYKVREKIETVKYPTYVEAEK | 2.98 |
| YPSYKVREKIETVKYPTYWEAEK | 2.37 |
| YPSYKVREKIETVKYPTYYEAEK | 1.25 |
| YPSYKVREKIETVKYPTYPAAEK | 3.93 |

| Variant | protein stability index |
| --- | --- |
| YPSYKVREKIETVKYPTYPCAEK | 3.33 |
| YPSYKVREKIETVKYPTYPDAEK | 4.62 |
| YPSYKVREKIETVKYPTYPFAEK | 3.39 |
| YPSYKVREKIETVKYPTYPGAEK | 4.26 |
| YPSYKVREKIETVKYPTYPHAEK | 3.97 |
| YPSYKVREKIETVKYPTYPIAEK | 2.88 |
| YPSYKVREKIETVKYPTYPKAEK | 4.69 |
| YPSYKVREKIETVKYPTYPLAEK | 3.5 |
| YPSYKVREKIETVKYPTYPMAEK | 3.55 |
| YPSYKVREKIETVKYPTYPNAEK | 4.41 |
| YPSYKVREKIETVKYPTYPQAEK | 3.61 |
| YPSYKVREKIETVKYPTYPRAEK | 3.63 |
| YPSYKVREKIETVKYPTYPSAEK | 3.56 |
| YPSYKVREKIETVKYPTYPTAEK | 3.87 |
| YPSYKVREKIETVKYPTYPVAEK | 3.48 |
| YPSYKVREKIETVKYPTYPWAEK | 2.9 |
| YPSYKVREKIETVKYPTYPYAEK | 3.52 |
| YPSYKVREKIETVKYPTYPECEK | 3.74 |
| YPSYKVREKIETVKYPTYPEDEK | 4.34 |
| YPSYKVREKIETVKYPTYPEEEK | 4.97 |
| YPSYKVREKIETVKYPTYPEFEK | 4.18 |
| YPSYKVREKIETVKYPTYPEGEK | 4.29 |
| YPSYKVREKIETVKYPTYPEHEK | 4.56 |
| YPSYKVREKIETVKYPTYPEIEK | 3.85 |
| YPSYKVREKIETVKYPTYPEKEK | 3.26 |

| Variant | protein stability index |
| --- | --- |
| YPSYKVREKIETVKYPTYPELEK | 3.38 |
| YPSYKVREKIETVKYPTYPEMEK | 4.7 |
| YPSYKVREKIETVKYPTYPENEK | 3.45 |
| YPSYKVREKIETVKYPTYPEPEK | 4.04 |
| YPSYKVREKIETVKYPTYPEREK | 3.43 |
| YPSYKVREKIETVKYPTYPESEK | 4.1 |
| YPSYKVREKIETVKYPTYPETEK | 3.67 |
| YPSYKVREKIETVKYPTYPEVEK | 3.89 |
| YPSYKVREKIETVKYPTYPEWEK | 4.21 |
| YPSYKVREKIETVKYPTYPEYEK | 3.67 |
| YPSYKVREKIETVKYPTYPEAAK | 3.28 |
| YPSYKVREKIETVKYPTYPEACK | 1.66 |
| YPSYKVREKIETVKYPTYPEADK | 4.31 |
| YPSYKVREKIETVKYPTYPEAFK | 4.11 |
| YPSYKVREKIETVKYPTYPEAHK | 4.28 |
| YPSYKVREKIETVKYPTYPEAIK | 2.17 |
| YPSYKVREKIETVKYPTYPEAKK | 4.54 |
| YPSYKVREKIETVKYPTYPEALK | 1.97 |
| YPSYKVREKIETVKYPTYPEAMK | 3.45 |
| YPSYKVREKIETVKYPTYPEANK | 4.36 |
| YPSYKVREKIETVKYPTYPEAPK | 4.46 |
| YPSYKVREKIETVKYPTYPEAQK | 4.44 |
| YPSYKVREKIETVKYPTYPEARK | 4.2 |
| YPSYKVREKIETVKYPTYPEASK | 4.04 |
| YPSYKVREKIETVKYPTYPEATK | 3.32 |

| Variant | protein stability index |
| --- | --- |
| YPSYKVREKIETVKYPTYPEAVK | 1.9 |
| YPSYKVREKIETVKYPTYPEAWK | 2.91 |
| YPSYKVREKIETVKYPTYPEAYK | 2.93 |
| YPSYKVREKIETVKYPTYPEAEA | 2.92 |
| YPSYKVREKIETVKYPTYPEAEC | 3.19 |
| YPSYKVREKIETVKYPTYPEAED | 4.61 |
| YPSYKVREKIETVKYPTYPEAEE | 1.93 |
| YPSYKVREKIETVKYPTYPEAEF | 3.68 |
| YPSYKVREKIETVKYPTYPEAEG | 3.96 |
| YPSYKVREKIETVKYPTYPEAEH | 4.15 |
| YPSYKVREKIETVKYPTYPEAEI | 4.41 |
| YPSYKVREKIETVKYPTYPEAEL | 3 |
| YPSYKVREKIETVKYPTYPEAEM | 2.94 |
| YPSYKVREKIETVKYPTYPEAEN | 3.95 |
| YPSYKVREKIETVKYPTYPEAEP | 3.88 |
| YPSYKVREKIETVKYPTYPEAEQ | 4.04 |
| YPSYKVREKIETVKYPTYPEAER | 1.82 |
| YPSYKVREKIETVKYPTYPEAES | 3.46 |
| YPSYKVREKIETVKYPTYPEAET | 3.36 |
| YPSYKVREKIETVKYPTYPEAEV | 3.4 |
| YPSYKVREKIETVKYPTYPEAEW | 2.53 |
| YPSYKVREKIETVKYPTYPEAEY | 2.9 |

Variants of: B2
Assay: as above
Conditions: c terminus: a fixed tail appended

| Variant | protein stability index |
| --- | --- |
| ASGEKPFICKECGKAYGWCSELIR | 1.89 |
| CSGEKPFICKECGKAYGWCSELIR | 1.61 |
| DSGEKPFICKECGKAYGWCSELIR | 2.31 |
| ESGEKPFICKECGKAYGWCSELIR | 2.4 |
| FSGEKPFICKECGKAYGWCSELIR | 2.76 |
| GSGEKPFICKECGKAYGWCSELIR | 2.55 |
| ISGEKPFICKECGKAYGWCSELIR | 2.21 |
| KSGEKPFICKECGKAYGWCSELIR | 2.12 |
| LSGEKPFICKECGKAYGWCSELIR | 1.9 |
| MSGEKPFICKECGKAYGWCSELIR | 1.16 |
| NSGEKPFICKECGKAYGWCSELIR | 2.15 |
| PSGEKPFICKECGKAYGWCSELIR | 2.37 |
| QSGEKPFICKECGKAYGWCSELIR | 2.32 |
| RSGEKPFICKECGKAYGWCSELIR | 2.45 |
| SSGEKPFICKECGKAYGWCSELIR | 2.33 |
| TSGEKPFICKECGKAYGWCSELIR | 1.82 |
| VSGEKPFICKECGKAYGWCSELIR | 1.88 |
| WSGEKPFICKECGKAYGWCSELIR | 1.81 |
| YSGEKPFICKECGKAYGWCSELIR | 2.28 |
| HAGEKPFICKECGKAYGWCSELIR | 1.7 |
| HCGEKPFICKECGKAYGWCSELIR | 2.12 |
| HDGEKPFICKECGKAYGWCSELIR | 2.51 |
| HEGEKPFICKECGKAYGWCSELIR | 2.35 |
| HFGEKPFICKECGKAYGWCSELIR | 2.87 |

| Variant | protein stability index |
| --- | --- |
| HGGEKPFICKECGKAYGWCSELIR | 2.12 |
| HHGEKPFICKECGKAYGWCSELIR | 1.91 |
| HIGEKPFICKECGKAYGWCSELIR | 2.21 |
| HKGEKPFICKECGKAYGWCSELIR | 1.74 |
| HLGEKPFICKECGKAYGWCSELIR | 2.4 |
| HMGEKPFICKECGKAYGWCSELIR | 2.07 |
| HNGEKPFICKECGKAYGWCSELIR | 2.58 |
| HPGEKPFICKECGKAYGWCSELIR | 2.33 |
| HQGEKPFICKECGKAYGWCSELIR | 2.04 |
| HRGEKPFICKECGKAYGWCSELIR | 1.64 |
| HTGEKPFICKECGKAYGWCSELIR | 1.76 |
| HVGEKPFICKECGKAYGWCSELIR | 1.84 |
| HWGEKPFICKECGKAYGWCSELIR | 1.68 |
| HYGEKPFICKECGKAYGWCSELIR | 1.81 |
| HSAEKPFICKECGKAYGWCSELIR | 1.86 |
| HSCEKPFICKECGKAYGWCSELIR | 2.5 |
| HSDEKPFICKECGKAYGWCSELIR | 2.32 |
| HSEEKPFICKECGKAYGWCSELIR | 2.29 |
| HSFEKPFICKECGKAYGWCSELIR | 2.13 |
| HSHEKPFICKECGKAYGWCSELIR | 1.47 |
| HSIEKPFICKECGKAYGWCSELIR | 1.87 |
| HSKEKPFICKECGKAYGWCSELIR | 1.99 |
| HSLEKPFICKECGKAYGWCSELIR | 1.57 |
| HSMEKPFICKECGKAYGWCSELIR | 2.49 |

| Variant | protein stability index |
| --- | --- |
| HSNEKPFICKECGKAYGWCSELIR | 2.07 |
| HSPEKPFICKECGKAYGWCSELIR | 2.22 |
| HSQEKPFICKECGKAYGWCSELIR | 1.97 |
| HSREKPFICKECGKAYGWCSELIR | 1.61 |
| HSSEKPFICKECGKAYGWCSELIR | 2.14 |
| HSTEKPFICKECGKAYGWCSELIR | 2.07 |
| HSVEKPFICKECGKAYGWCSELIR | 2 |
| HSWEKPFICKECGKAYGWCSELIR | 1.86 |
| HSYEKPFICKECGKAYGWCSELIR | 1.88 |
| HSGAKPFICKECGKAYGWCSELIR | 1.55 |
| HSGCKPFICKECGKAYGWCSELIR | 1.9 |
| HSGDKPFICKECGKAYGWCSELIR | 1.91 |
| HSGFKPFICKECGKAYGWCSELIR | 1.37 |
| HSGGKPFICKECGKAYGWCSELIR | 1.71 |
| HSGHKPFICKECGKAYGWCSELIR | 2.17 |
| HSGIKPFICKECGKAYGWCSELIR | 1.27 |
| HSGKKPFICKECGKAYGWCSELIR | 1.54 |
| HSGLKPFICKECGKAYGWCSELIR | 2.76 |
| HSGMKPFICKECGKAYGWCSELIR | 1.46 |
| HSGNKPFICKECGKAYGWCSELIR | 1.95 |
| HSGPKPFICKECGKAYGWCSELIR | 2.22 |
| HSGQKPFICKECGKAYGWCSELIR | 1.53 |
| HSGRKPFICKECGKAYGWCSELIR | 1.6 |
| HSGSKPFICKECGKAYGWCSELIR | 2.52 |

| Variant | protein stability index |
| --- | --- |
| HSGTKPFICKECGKAYGWCSELIR | 1.29 |
| HSGVKPFICKECGKAYGWCSELIR | 1.05 |
| HSGWKPFICKECGKAYGWCSELIR | 1.54 |
| HSGYKPFICKECGKAYGWCSELIR | 1.81 |
| HSGEAPFICKECGKAYGWCSELIR | 2.1 |
| HSGECPFICKECGKAYGWCSELIR | 1.8 |
| HSGEDPFICKECGKAYGWCSELIR | 2.17 |
| HSGEEPFICKECGKAYGWCSELIR | 3.4 |
| HSGEFPFICKECGKAYGWCSELIR | 1.65 |
| HSGEGPFICKECGKAYGWCSELIR | 2.38 |
| HSGEHPFICKECGKAYGWCSELIR | 1.84 |
| HSGEIPFICKECGKAYGWCSELIR | 2.21 |
| HSGELPFICKECGKAYGWCSELIR | 1.65 |
| HSGEMPFICKECGKAYGWCSELIR | 2.05 |
| HSGENPFICKECGKAYGWCSELIR | 2.23 |
| HSGEPPFICKECGKAYGWCSELIR | 2.63 |
| HSGEQPFICKECGKAYGWCSELIR | 2.12 |
| HSGERPFICKECGKAYGWCSELIR | 2.57 |
| HSGESPFICKECGKAYGWCSELIR | 2.21 |
| HSGETPFICKECGKAYGWCSELIR | 1.86 |
| HSGEVPFICKECGKAYGWCSELIR | 2.08 |
| HSGEWPFICKECGKAYGWCSELIR | 1.96 |
